The source of these data is patent US20090192084A1 (CALIFORNIA INSTITUTE OF TECHNOLOGY, published 2009).

In assay [1] the target is T1, Ubiquitin conjugation factor E4 B, UBE4B (Ufd2ortholog) (human, UniProt O95155 1-1302).
T1 sequence (looked up): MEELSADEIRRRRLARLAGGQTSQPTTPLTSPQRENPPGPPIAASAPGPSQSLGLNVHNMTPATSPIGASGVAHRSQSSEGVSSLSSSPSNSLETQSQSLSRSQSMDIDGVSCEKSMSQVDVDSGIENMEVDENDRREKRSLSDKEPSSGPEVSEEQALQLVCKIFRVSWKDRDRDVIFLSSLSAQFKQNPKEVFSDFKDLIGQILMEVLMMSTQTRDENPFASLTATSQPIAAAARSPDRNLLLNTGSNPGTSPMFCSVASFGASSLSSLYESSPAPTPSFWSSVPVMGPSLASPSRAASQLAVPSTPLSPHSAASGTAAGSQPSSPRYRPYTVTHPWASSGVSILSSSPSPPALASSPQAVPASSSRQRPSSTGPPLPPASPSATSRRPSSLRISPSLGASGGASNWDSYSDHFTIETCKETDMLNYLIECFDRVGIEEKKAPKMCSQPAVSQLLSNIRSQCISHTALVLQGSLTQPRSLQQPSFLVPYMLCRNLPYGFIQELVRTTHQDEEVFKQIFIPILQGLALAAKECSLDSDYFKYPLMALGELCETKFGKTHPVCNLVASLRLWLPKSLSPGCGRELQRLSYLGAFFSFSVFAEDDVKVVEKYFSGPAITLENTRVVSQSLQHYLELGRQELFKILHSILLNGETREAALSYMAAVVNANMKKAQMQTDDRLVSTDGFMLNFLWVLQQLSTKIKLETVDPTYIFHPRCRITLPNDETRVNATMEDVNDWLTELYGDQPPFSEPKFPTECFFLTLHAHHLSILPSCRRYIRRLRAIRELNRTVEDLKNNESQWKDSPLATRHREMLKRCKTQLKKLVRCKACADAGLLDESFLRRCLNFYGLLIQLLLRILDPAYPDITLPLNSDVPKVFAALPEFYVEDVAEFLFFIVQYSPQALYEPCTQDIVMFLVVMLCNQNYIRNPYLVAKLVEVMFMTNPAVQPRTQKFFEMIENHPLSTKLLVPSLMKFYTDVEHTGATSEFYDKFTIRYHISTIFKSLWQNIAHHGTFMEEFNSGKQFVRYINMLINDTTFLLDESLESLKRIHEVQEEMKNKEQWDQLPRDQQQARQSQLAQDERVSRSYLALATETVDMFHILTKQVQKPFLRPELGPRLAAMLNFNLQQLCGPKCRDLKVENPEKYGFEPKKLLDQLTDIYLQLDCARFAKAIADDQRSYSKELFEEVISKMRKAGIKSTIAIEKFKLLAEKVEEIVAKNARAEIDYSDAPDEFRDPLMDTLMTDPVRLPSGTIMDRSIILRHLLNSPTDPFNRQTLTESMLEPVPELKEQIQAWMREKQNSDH
The experiment in a line: co-IP, MudPIT MS.

Assay [2] has as its target T2, endogenous p97 (human, UniProt P55072 2-806).
T2 construct: also called VCP
The experiment in a line: Flag co-IP, 293 cells, MudPIT MS. As for the experimental part: For immunoprecipitation experiments, the cells were lysed in buffer A (50 mM HEPES/KOH, pH 7.5; 5 mM Mg(OAc)₂; 70 mM KOAc; 0.2% Triton X-100; 10% glycerol; 0.2 mM EDTA; protease inhibitors) and incubated with anti-Flag agarose beads (Sigma) or anti-Myc sepharose beads (Covance).
Mass spectrometrical sample analysis was performed as described previously (Graumann et al., 2004) using a high-pressure liquid chromatography pump (Agilent) in line to a LCQ DecaXP electrospray ion trap mass spectrometer (ThermoFinnigan). In brief, 2-4 mg of protein extract were incubated with anti-Flag or anti-Myc beads and the immunoprecipitated proteins were eluted with saturated urea. The eluates were then proteolitically digested using sequentially endoproteinase Lys-C and trypsin. The resulting peptide mixtures were pressure-loaded onto triphasic microcapillary columns and sample separation was achieved using a chromatography program consisting of six salt steps, each followed by an organic gradient. The eluting peptides were electrosprayed into the mass spectrometer and the column eluate was continuously analyzed. One full-range mass scan ([…]) was followed by three data-dependent tandem mass spectrometry (MS/MS) spectra. Sequence database matching was performed against the IPI human database (Kersey et al., 2004) version 3.15.1 using Sequest (Eng et al., 1994) and the results were filtered with DTASelect (Tabb et al., 2002), using the parameters indicated in Graumann et al. (2004).

Assay [3] has as its target T2, endogenous p97. The experiment in a line: Flag co-IP from HeLa cells, western blot. For orientation: In western blotting, separated proteins are transferred to a membrane and probed.
The next assay deals with T3, Cullin 2 (human, UniProt Q13617 1-745).
T3 construct: also called CUL2
The experiment in a line: Flag co-IP, HeLa cells, western blot.

For the next assay, the target named is T4, Cullin 1 (human, UniProt Q13616 1-776, limits assumed).
T4 construct: also called CUL1
The experiment in a line: Flag co-IP, HeLa cells, western blot.

Assay [4] addresses T2, endogenous p97. The experiment in a line: Superdex 200 gel filtration of HeLa extracts, western blot. A general note: Size exclusion chromatography separates by hydrodynamic size, large species first.

B1: Flag-FAF1 (other, UniProt Q9UNN5 1-650, looked up)
chain: MASNMDREMILADFQACTGIENIDEAITLLEQNNWDLVAAINGVIPQENGILQSEYGGETIPGPAFNPASHPASAPTSSSSSAFRPVMPSRQIVERQPRMLDFRVEYRDRNVDVVLEDTCTVGEIKQILENELQIPVSKMLLKGWKTGDVEDSTVLKSLHLPKNNSLYVLTPDLPPPSSSSHAGALQESLNQNFMLIITHREVQREYNLNFSGSSTIQEVKRNVYDLTSIPVRHQLWEGWPTSATDDSMCLAESGLSYPCHRLTVGRRSSPAQTREQSEEQITDVHMVSDSDGDDFEDATEFGVDDGEVFGMASSALRKSPMMPENAENEGDALLQFTAEFSSRYGDCHPVFFIGSLEAAFQEAFYVKARDRKLLAIYLHHDESVLTNVFCSQMLCAESIVSYLSQNFITWAWDLTKDSNRARFLTMCNRHFGSVVAQTIRTQKTDQFPLFLIIMGKRSSNEVLNVIQGNTTVDELMMRLMAAMEIFTAQQQEDIKDEDEREARENVKREQDEAYRLSLEADRAKREAHEREMAEQFRLEQIRKEQEEEREAIRLSLEQALPPEPKEENAEPVSKLRIRTPSGEFLERRFLASNKLQIVFDFVASKGFPWDEYKLLSTFPRRDVTQLDPNKSLLEVKLFPQETLFLEAKE
notes: also called RDB 2151; not shown: N-terminal Flag tag
Turning to B1, the binding result in assay [1] is “no binding”. In the assay with endogenous p97 [2], this molecule showed a sequence count of 84, a sequence coverage of 68.9% and a spectrum count of 539.

B2: Flag-UBXD7ΔUBX (other, not shown: small tags and cut ends)
chain: MAAHGGSAASSALKGLIQQFTTITGASESVGKHMLEACNNNLEMAVTMFLDGGGIAEEPSTSSASVSTVRPHTEEEVRAPIPQKQEILVEPEPLFGAPKRRRPARSIFDGFRDFQTETIRQEQELRNGGAIDKKLTTLADLFRPPIDLMHKGSFETAKECGQMQNKWLMINIQNVQDFACQCLNRDVWSNEAVKNIIREHFIFWQVYHDSEEGQRYIQFYKLGDFPYVSILDPRTGQKLVEWHQLDVSSFLDQVTGFLGEHGQLDGLSSSPPKKCARSESLIDASEDSQLEAAIRASLQETHFDSTQTKQDSRSDEESESELFSGSEEFISVCGSDEEEEVENLAKSRKSPHKDLGHRKEENRRPLTEPPVRTDPGTATNHQGLPAVDSEILEMPPEKAD
notes: also called UBXD7(1-400); truncated UBXD7
Consider B2, for which the binding result with endogenous p97 [3] is given as “no binding”; with Cullin 2 it was “binds”; in the assay with Cullin 1, “binds”.

B3: Flag-ASPL (other, UniProt Q9BZE9 1-553, looked up)
chain: MAAPAGGGGSAVSVLAPNGRRHTVKVTPSTVLLQVLEDTCRRQDFNPCEYDLKFQRSVLDLSLQWRFANLPNNAKLEMVPASRSREGPENMVRIALQLDDGSRLQDSFCSGQTLWELLSHFPQIRECLQHPGGATPVCVYTRDEVTGEAALRGTTLQSLGLTGGSATIRFVMKCYDPVGKTPGSLGSSASAGQAAASAPLPLESGELSRGDLSRPEDADTSGPCCEHTQEKQSTRAPAAAPFVPFSGGGQRLGGPPGPTRPLTSSSAKLPKSLSSPGGPSKPKKSKSGQDPQQEQEQERERDPQQEQERERPVDREPVDREPVVCHPDLEERLQAWPAELPDEFFELTVDDVRRRLAQLKSERKRLEEAPLVTKAFREAQIKEKLERYPKVALRVLFPDRYVLQGFFRPSETVGDLRDFVRSHLGNPELSFYLFITPPKTVLDDHTQTLFQANLFPAALVHLGAEEPAGVYLEPGLLEHAISPSAADVLVARYMSRAAGSPSPLPAPDPAPKSEPAAEEGALVPPEPIPGTAQPVKRSLGKVPKWLKLPASKR
notes: also called RDB 2144; not shown: N-terminal Flag tag
In the assay with endogenous p97 [2], B3 registered a sequence count of 154, a sequence coverage of 78.5% and a spectrum count of 1440.

B4: Flag-UBXD8 (other, UniProt Q96CS3 1-445, looked up)
chain: MAAPEERDLTQEQTEKLLQFQDLTGIESMDQCRHTLEQHNWNIEAAVQDRLNEQEGVPSVFNPPPSRPLQVNTADHRIYSYVVSRPQPRGLLGWGYYLIMLPFRFTYYTILDIFRFALRFIRPDPRSRVTDPVGDIVSFMHSFEEKYGRAHPVFYQGTYSQALNDAKRELRFLLVYLHGDDHQDSDEFCRNTLCAPEVISLINTRMLFWACSTNKPEGYRVSQALRENTYPFLAMIMLKDRRMTVVGRLEGLIQPDDLINQLTFIMDANQTYLVSERLEREERNQTQVLRQQQDEAYLASLRADQEKERKKREERERKRRKEEEVQQQKLAEERRRQNLQEEKERKLECLPPEPSPDDPESVKIIFKLPNDSRVERRFHFSQSLTVIHDFLFSLKESPEKFQIEANFPRRVLPCIPSEEWPNPPTLQEAGLSHTEVLFVQDLTDE
notes: also called RDB 2143; not shown: N-terminal Flag tag
As to B4, the binding result in assay [1] was “no binding”. In the assay with endogenous p97 [2], this molecule came in with a sequence count of 48, a sequence coverage of 57.6% and a spectrum count of 3090.

B5: Flag-UBXD7 (other, UniProt O94888 1-489, looked up)
chain: MAAHGGSAASSALKGLIQQFTTITGASESVGKHMLEACNNNLEMAVTMFLDGGGIAEEPSTSSASVSTVRPHTEEEVRAPIPQKQEILVEPEPLFGAPKRRRPARSIFDGFRDFQTETIRQEQELRNGGAIDKKLTTLADLFRPPIDLMHKGSFETAKECGQMQNKWLMINIQNVQDFACQCLNRDVWSNEAVKNIIREHFIFWQVYHDSEEGQRYIQFYKLGDFPYVSILDPRTGQKLVEWHQLDVSSFLDQVTGFLGEHGQLDGLSSSPPKKCARSESLIDASEDSQLEAAIRASLQETHFDSTQTKQDSRSDEESESELFSGSEEFISVCGSDEEEEVENLAKSRKSPHKDLGHRKEENRRPLTEPPVRTDPGTATNHQGLPAVDSEILEMPPEKADGVVEGIDVNGPKAQLMLRYPDGKREQITLPEQAKLLALVKHVQSKGYPNERFELLTNFPRRKLSHLDYDITLQEAGLCPQETVFVQERN
notes: Wild-type plasmid in pCMV5B; expressed in 293 or HeLa cells and pulled down on anti-Flag beads; also called RDB 2155; not shown: N-terminal Flag tag
Consider B5, for which the binding result in assay [1] was “no binding”. In the assay with endogenous p97 [2], this molecule registered a sequence count of 77, a sequence coverage of 61.2% and a spectrum count of 375.

B6: endogenous UBXD7 (other, human, UniProt O94888 2-489, looked up)
chain: AAHGGSAASSALKGLIQQFTTITGASESVGKHMLEACNNNLEMAVTMFLDGGGIAEEPSTSSASVSTVRPHTEEEVRAPIPQKQEILVEPEPLFGAPKRRRPARSIFDGFRDFQTETIRQEQELRNGGAIDKKLTTLADLFRPPIDLMHKGSFETAKECGQMQNKWLMINIQNVQDFACQCLNRDVWSNEAVKNIIREHFIFWQVYHDSEEGQRYIQFYKLGDFPYVSILDPRTGQKLVEWHQLDVSSFLDQVTGFLGEHGQLDGLSSSPPKKCARSESLIDASEDSQLEAAIRASLQETHFDSTQTKQDSRSDEESESELFSGSEEFISVCGSDEEEEVENLAKSRKSPHKDLGHRKEENRRPLTEPPVRTDPGTATNHQGLPAVDSEILEMPPEKADGVVEGIDVNGPKAQLMLRYPDGKREQITLPEQAKLLALVKHVQSKGYPNERFELLTNFPRRKLSHLDYDITLQEAGLCPQETVFVQERN
Regarding B6, in the assay with endogenous p97 [4], the binding result is listed as “binds”.

B7: Flag-SAKS1 (other, UniProt Q04323 1-297, looked up)
chain: MAELTALESLIEMGFPRGRAEKALALTGNQGIEAAMDWLMEHEDDPDVDEPLETPLGHILGREPTSSEQGGLEGSGSAAGEGKPALSEEERQEQTKRMLELVAQKQREREEREEREALERERQRRRQGQELSAARQRLQEDEMRRAAEERRREKAEELAARQRVREKIERDKAERAKKYGGSVGSQPPPVAPEPGPVPSSPSQEPPTKREYDQCRIQVRLPDGTSLTQTFRAREQLAAVRLYVELHRGEELGGGQDPVQLLSGFPRRAFSEADMERPLQELGLVPSAVLIVAKKCPS
notes: also called RDB 2150; not shown: N-terminal Flag tag
On to B7, for which, in the assay with endogenous p97 [2], the sequence count came to 68, the sequence coverage stood at 57.4% and the spectrum count came out at 663.
